Experimental data published in the supplement of paper PMC10567573.

B1: PTPRD (parent)
chain: FICQATGDPRPKIVWNKKGKKVSN
B2: PWWP2B (parent)
chain: TIRLRPRQVLCEKCKSTLSPPEAS

Variants of: B1
Experiment: protein stability index of a GFP-peptide fusion (GPS, HEK-293T) (PSI 1-6); higher = more stable
Settings: c terminus: a fixed tail appended
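Further: lentivirally expressed fusions sorted by FACS into six bins by GFP to DsRed ratio, PSI derived from sequencing read proportions per bin multiplied by bin number.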

Protein stability index, by site and new letter:
P9: G 1.4; C 1.49; A 1.84; Q 1.83; E 1.99; M 2.36; Y 1.53; K 1.54; V 2.27; I 2.21; H 2.29; L 2.49; S 2; N 2.31; W 1.53; F 1.99; D 2.14; T 1.88
G7: S 2.02; T 2.01; F 2.69; E 2.81; R 1.92; Y 1.7; C 1.87; M 1.9; P 2.32; V 1.81; N 1.97; K 2.39; Q 2.22; A 2.15; I 2.01; H 2.16; D 1.93; W 3.96; L 2.19
P11: S 2.18; Y 2.31; M 1.03; F 1.52; E 2.88; Q 2.19; N 1.87; I 2.31; V 1.18; G 2.04; W 1.87; R 2.5; C 1.32; A 2.34; L 3.08; D 2.11; H 2.4; T 2.07; K 1.45
V14: E 2.7; G 2; W 2.18; R 1.78; M 1.67; T 2.5; A 2.23; H 2.27; F 3.73; P 2.21; N 1.73; S 2.27; Y 1.59; D 2.35; I 2.23; Q 2.01; K 2.4
K18: Q 1.74; G 2.04; M 1.46; L 1.67; H 2.35; A 1.93; S 1.61; C 1.72; E 2.41; V 1.45; D 1.95; P 1.97; I 1.24; W 2.01; N 1.98; Y 1.94; F 1.38; R 2.2; T 1.51
V22: E 2.34; I 2.17; T 2.29; K 2.66; L 2.36; A 2; S 2.41; F 2.4; Y 2.47; G 2.58; H 2.46; R 2.04; N 2.16; Q 2.47; P 2.62; D 2.86; M 2.35; C 2.13; W 2.35
N24: P 2.31; F 1.89; H 2.17; Q 2.02; L 1.44; I 2.73; K 1.85; V 2.33; S 2.03; M 1.4; Y 2.08; T 1.65; D 2.05; G 2.22; W 1.92; A 1.97; E 2.37; C 2.23; R 3.04
N16: R 1.96; L 1.91; Y 1.89; K 2.25; M 1.74; A 1.72; W 1.48; D 2.45; Q 2.56; T 1.91; G 1.05; E 2.75; P 1.75; S 2.24; H 1.74; F 2.04; I 1.99; V 1.37; C 1.73
D8: A 2.04; G 1.98; E 1.91; S 1.92; K 2.5; R 2.24; F 1.85; Y 1.45; P 1.8; M 1.8; H 1.6; L 1.5; Q 1.77; I 2.33; T 2.11; N 2.16; C 1.94
W15: R 2.6; P 2.56; H 2.15; M 2.9; G 2.26; V 2.76; N 2.53; L 2.16; F 2.5; C 2.57; I 2.26; Q 2.73; E 2.67; K 2.12; T 2.85; A 2.48; S 2.7; D 2.73; Y 2.25
K12: P 1.96; H 1.86; N 1.95; Q 1.94; M 1.58; W 1.6; S 2.17; A 1.87; T 2.26; Y 1.41; L 3.35; D 1.18; R 1.44; I 1.89; E 1.52; C 1.9; G 2.28; V 1.61
R10: V 1.88; E 1.61; T 2; A 1.98; Q 2.06; S 1.81; I 2.08; P 2.41; M 2.58; N 1.83; D 1.82; L 1.83; K 2.95; F 1.89; H 1.79; C 1.84
K20: L 1.96; S 1.94; Y 1.48; Q 2.56; H 2.71; R 2.39; M 1.8; E 1.78; D 1.64; P 2; G 1.79; W 1.76; C 1.17; I 1.88; A 1.82; T 1.69; V 1.44; N 1.77
I13: K 1.74; C 1.99; N 1.88; H 1.74; S 1.52; M 1.51; F 1.62; W 1.87; R 2.46; Q 2.02; L 1.45; A 1.83; Y 1.86; T 1.73; G 2.6; P 1.75; V 2.97; E 2.1
K21: T 2.45; Y 1.49; F 1.61; E 2.25; N 2.17; W 1.72; L 2.9; C 2.26; V 1.9; M 2.03; R 2.49; Q 1.77; G 1.9; I 2.2; D 1.99; A 2.52; P 2.18; H 1.95; S 2.28
K17: E 1.34; Q 1.84; L 1.78; V 1.9; M 1.78; S 1.79; W 2.78; A 1.37; N 2.31; C 1.92; T 1.55; D 1.74; I 1.31; F 1.56; G 1.77; Y 1.68; H 1.96; P 2.81; R 2.21
G19: N 1.56; H 1.9; C 1.26; A 2.23; Y 1.27; Q 2.4; E 1.8; W 1.84; R 2.05; D 1.71; F 2.51; S 1.7; V 1.71; T 2.14; P 1.74; I 1.53; K 1.87; M 2.22
S23: W 2.28; F 2.31; K 2.52; H 2.37; C 2.69; V 2.4; T 2.59; D 2.52; P 2.15; I 1.84; Q 2.07; N 2.12; Y 2; E 2.72; A 2.49; G 2.28; L 2.14; R 2.08; M 2.29
T6: Y 2.24

Variants of: B2
Experiment: as above
Settings: c terminus: a fixed tail appended

Protein stability index: each site, then its substitutions
T1: A 2.59; D 3.76; C 2.91
